Measured values: paper PMC8354592

Target: GST-GNL1 (UniProt P36915 1-607)
Test: EMSA

GST-GNL1, sequence (P36915 whole entry): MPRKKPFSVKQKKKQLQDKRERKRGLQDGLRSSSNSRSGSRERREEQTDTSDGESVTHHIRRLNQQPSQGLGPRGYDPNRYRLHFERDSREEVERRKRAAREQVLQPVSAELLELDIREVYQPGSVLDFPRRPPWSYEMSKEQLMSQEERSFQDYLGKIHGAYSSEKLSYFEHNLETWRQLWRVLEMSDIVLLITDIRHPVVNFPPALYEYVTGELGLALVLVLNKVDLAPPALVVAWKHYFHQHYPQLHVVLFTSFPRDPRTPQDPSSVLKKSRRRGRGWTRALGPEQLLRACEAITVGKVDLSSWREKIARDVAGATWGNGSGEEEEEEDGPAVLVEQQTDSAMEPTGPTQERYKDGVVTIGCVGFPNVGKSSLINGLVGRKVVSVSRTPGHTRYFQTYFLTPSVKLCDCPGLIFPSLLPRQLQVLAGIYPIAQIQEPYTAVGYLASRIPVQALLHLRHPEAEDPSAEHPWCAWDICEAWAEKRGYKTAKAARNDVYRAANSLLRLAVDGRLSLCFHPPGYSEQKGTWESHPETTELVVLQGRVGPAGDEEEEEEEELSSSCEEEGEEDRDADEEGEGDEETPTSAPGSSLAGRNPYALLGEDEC

B1: PRKN G/A mutant (ssRNA)
RNA: GGAUUCCUAGGGCCGAGCGCGAGAGCGAGAAGGCCUGAAGGAUUUAACCCAGAAGAGCCGCUGGUGAGAGGCGCGGCUGGCGCCGCUGCGCGC
Q: B1 was tested. Which Kd did it give?
A: The Kd was 7.34 µM.
